Patent US20170198056A1 (MEDICINAL CHEMISTRY PHARMACEUTICALS, published 2017)

B1: Monoclonal antibody SN-101 (antibody, V domains shown)
VH: EVNLEESGGGLVQPGGSMKLSCVASGFTFSNYWMNWVRQSPEKGLEWVAQIRLKSDNYATHYAESVKGRFTISRDDSKSSVYLQMNNLRAEDTGIYYCTGGVFDYWGQGTTLTVSS
VL: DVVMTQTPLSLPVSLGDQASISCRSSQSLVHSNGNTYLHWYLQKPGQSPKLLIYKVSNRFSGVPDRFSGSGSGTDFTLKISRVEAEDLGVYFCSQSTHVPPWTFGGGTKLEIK
notes: Mouse monoclonal antibody from a hybridoma; it was purified on Protein G and detected with anti-mouse IgG; The array assay used culture supernatant diluted 10-fold; also called antibody of hybridoma strain 3A9-4B1 (NITE BP-01845)
B2: Monoclonal antibody SN-102 (antibody, V domains shown)
VH: EVQLQQSGAELVKPGASVKLSCTASGFNIKDYYMHWVKQRTEQGLEWIGRIDPEDGETKYAPKFQGKAIITADTSSNTAYLQLSSLTSEDTAVYYCVHFYYGYDVGRGYWGQGTTLTVSS
VL: DIVMSQSPSSLAVSVGEKVTMSCKSSQSLLYSSNQKNYLAWYQQKPGQSPKLLIYWASTRESGVPDRFTGSGSGTDFTLTISSVKAEDLAVYYCQQYYSYTFGGGTKLEIK
notes: Mouse monoclonal antibody from a hybridoma; it was purified on Protein G and detected with anti-mouse IgG; The array assay used culture supernatant diluted 10-fold; also called antibody of hybridoma strain 3C10-E11

Biological target: T1, MUC1 expressed on breast cancer cells (OCUB-M, MCF-7) (human, UniProt P15941 24-1255, native O-glycosylation of the cancer cells, not defined)
T1 construct: whole, on cells; OCUB-M cells were fixed and treated with Triton X-100; MCF-7 cells were fixed with formaldehyde; also called MUC1 expressing cells
T1 sequence (P15941 24-1255): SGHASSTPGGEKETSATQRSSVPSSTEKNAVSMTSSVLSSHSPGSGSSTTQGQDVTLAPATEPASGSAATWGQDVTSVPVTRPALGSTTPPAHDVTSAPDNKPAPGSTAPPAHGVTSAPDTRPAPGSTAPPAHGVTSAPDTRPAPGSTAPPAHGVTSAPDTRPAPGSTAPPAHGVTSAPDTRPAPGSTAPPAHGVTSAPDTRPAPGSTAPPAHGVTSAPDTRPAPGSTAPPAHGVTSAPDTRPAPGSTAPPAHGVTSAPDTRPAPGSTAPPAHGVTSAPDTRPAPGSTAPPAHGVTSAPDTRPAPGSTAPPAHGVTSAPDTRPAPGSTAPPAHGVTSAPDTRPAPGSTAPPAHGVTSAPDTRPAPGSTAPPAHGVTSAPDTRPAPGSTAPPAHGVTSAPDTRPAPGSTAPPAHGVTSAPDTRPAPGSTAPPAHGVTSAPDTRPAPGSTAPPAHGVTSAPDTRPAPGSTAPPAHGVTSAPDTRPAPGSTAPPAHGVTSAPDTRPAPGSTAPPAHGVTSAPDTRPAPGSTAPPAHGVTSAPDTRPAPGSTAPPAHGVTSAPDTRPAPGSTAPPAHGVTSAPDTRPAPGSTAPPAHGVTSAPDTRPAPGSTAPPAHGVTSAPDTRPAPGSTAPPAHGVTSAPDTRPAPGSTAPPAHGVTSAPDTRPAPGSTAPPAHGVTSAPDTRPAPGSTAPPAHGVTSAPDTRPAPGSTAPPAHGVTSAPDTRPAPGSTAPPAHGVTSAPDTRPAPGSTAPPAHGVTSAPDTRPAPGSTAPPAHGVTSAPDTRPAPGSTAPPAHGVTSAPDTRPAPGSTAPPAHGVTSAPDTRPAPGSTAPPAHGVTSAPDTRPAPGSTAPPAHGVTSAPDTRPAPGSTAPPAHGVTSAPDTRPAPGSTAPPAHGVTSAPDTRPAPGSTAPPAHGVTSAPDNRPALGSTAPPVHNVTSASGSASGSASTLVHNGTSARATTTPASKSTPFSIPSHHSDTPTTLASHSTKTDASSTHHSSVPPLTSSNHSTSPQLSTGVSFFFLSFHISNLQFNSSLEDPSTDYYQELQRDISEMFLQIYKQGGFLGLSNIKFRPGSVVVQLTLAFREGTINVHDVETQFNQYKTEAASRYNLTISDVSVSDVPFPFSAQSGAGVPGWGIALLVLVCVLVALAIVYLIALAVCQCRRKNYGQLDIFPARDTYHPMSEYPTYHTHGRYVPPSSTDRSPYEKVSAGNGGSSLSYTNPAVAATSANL
Assay: immunofluorescence staining of fixed OCUB-M breast cancer cells, 10 ug/mL antibody

| Binder | binding result |
| --- | --- |
| B1 | binds |
| B2 | binds |
